Test results taken from US20220089698A1 (published 2022).
Numbering of substitutions follows the chain as printed.

Columns and labels:
HIV gp120 Bal = HIV gp120 Bal (HIV); experiment: single-point ELISA; further: test concentration or dose not given here
HIV gp120 CAAN = HIV gp120 CAAN (HIV); experiment: single-point ELISA; further: test concentration or dose not given here

B1: 1.1.10-1 (antibody, human IgG1, kappa)
heavy: QVQLLQSGAAVTKPGASVRVSCEASGYNIRDYFIHWWRQAPGQGLQWVGWINPKTGQPNNPRQFQGRVSLTRHASWDFDTFSFYMDLKALRSDDTAVYFCARQRSDYWDFDVWGSGTQVTVSSASTKGPSVFPLAPSSKSTSGGTAALGCLVKDYFPEPVTVSWNSGALTSGVHTFPAVLQSSGLYSLSSVVTVPSSSLGTQTYICNVNHKPSNTKVDKKVEPKSCDKTHTCPPCPAPELLAGPDVFLFPPKPKDTLMISRTPEVTCVVVDVSHEDPEVKFNWYVDGVEVHNAKTKPREEQYNSTYRVVSVLTVLHQDWLNGKEYKCKVSNKALPLPEEKTISKAKGQPREPQVYTLPPSREEMTKNQVSLTCLVKGFYPSDIAVEWESNGQPENNYKTTPPVLDSDGSFFLYSKLTVDKSRWQQGNVFSCSVLHEALHSHYTQKSLSLSPGK
light: DIQMTQSPSSLSASVGDTVTITCQANGYLNWYQQRRGKAPKLLIYDGSKLERGVPSRFSGRRWGQEYTLTINNLQPEDIATYFCQVYEFVVPGTRLDLKRTVAAPSVFIFPPSDEQLKSGTASVVCLLNNFYPREAKVQWKVDNALQSGNSQESVTEQDSKDSTYSLSSTLTLSKADYEKHKVYACEVTHQGLSSPVTKSFNRGEC
ELISA (A450) (HIV gp120 Bal): 0.94 A450
ELISA (A450) (HIV gp120 CAAN): 1.1 A450

B2: 1.1.21-1 (antibody, human IgG1, kappa)
heavy: B1 heavy
light: B1 light with T68N, V91G, R95N
ELISA (A450) (HIV gp120 Bal): 0.98 A450
ELISA (A450) (HIV gp120 CAAN): 0.99 A450

B3: 1.1.23-1 (antibody, human IgG1, kappa)
heavy: B1 heavy
light: B1 light with T68N, V91T, R95N
ELISA (A450) (HIV gp120 Bal): 0.9 A450
ELISA (A450) (HIV gp120 CAAN): 0.95 A450

B4: 1.1.22-1 (antibody, human IgG1, kappa)
heavy: B1 heavy
light: B1 light with T68N, V91S, R95N
ELISA (A450) (HIV gp120 Bal): 0.88 A450
ELISA (A450) (HIV gp120 CAAN): 1.02 A450

B5: 1.1.13-1 (antibody, human IgG1, kappa)
heavy: B1 heavy
light: B1 light with R61S, N72S, N73S
ELISA (A450) (HIV gp120 Bal): 0.94 A450
ELISA (A450) (HIV gp120 CAAN): 1.11 A450

B6: 1.1.16-1 (antibody, human IgG1, kappa)
heavy: B1 heavy
light: B1 light with T68N, V91G
ELISA (A450) (HIV gp120 Bal): 1.06 A450
ELISA (A450) (HIV gp120 CAAN): 0.99 A450

B7: 1.1.20-1 (antibody, human IgG1, kappa)
heavy: B1 heavy
light: B1 light with T68N, R95N
ELISA (A450) (HIV gp120 Bal): 0.94 A450
ELISA (A450) (HIV gp120 CAAN): 0.95 A450

B8: 1.1.19-1 (antibody, human IgG1, kappa)
heavy: B1 heavy
light: B1 light with T68N, V91T
ELISA (A450) (HIV gp120 Bal): 1.03 A450
ELISA (A450) (HIV gp120 CAAN): 1.05 A450

B9: 1.1.12-1 (antibody, human IgG1, kappa)
heavy: B1 heavy
light: B1 light with T68N, N72S, N73S
ELISA (A450) (HIV gp120 Bal): 1.05 A450
ELISA (A450) (HIV gp120 CAAN): 1.02 A450

B10: 1.1.11-1 (antibody, human IgG1, kappa)
heavy: B1 heavy
light: B1 light with R61S
ELISA (A450) (HIV gp120 Bal): 0.92 A450
ELISA (A450) (HIV gp120 CAAN): 1.03 A450

B11: 1.1.18-1 (antibody, human IgG1, kappa)
heavy: B1 heavy
light: B1 light with T68N, V91S
ELISA (A450) (HIV gp120 Bal): 0.92 A450
ELISA (A450) (HIV gp120 CAAN): 0.92 A450

B12: 1.1.17-1 (antibody, human IgG1, kappa)
heavy: B1 heavy
light: B1 light with T68N, V90F, V91G
ELISA (A450) (HIV gp120 Bal): 1.02 A450
ELISA (A450) (HIV gp120 CAAN): 0.9 A450

B13: 1.1.15-1 (antibody, human IgG1, kappa)
heavy: B1 heavy
light: B1 light with T68N, V90F
ELISA (A450) (HIV gp120 Bal): 0.93 A450
ELISA (A450) (HIV gp120 CAAN): 0.79 A450
